Measured values published in publication PMC3459974.

Molecular target: thioredoxin fused-human artemin protein (Trx-ARTN) (human) (UniProt Q5T4W7)
Assay: SEC; Superdex-200 10/300 column; dimeric Trx-ARTN fractions eluted from the CM-sepharose column, from both refolding methods; calibration with protein standards

stoichiometry N: 2
Substance: thioredoxin fused-human artemin protein (Trx-ARTN) (from UniProt Q5T4W7 40-220) (natural protein)
